Results as given in patent US20190038774A1.

Target: MHCI antigen presented on MNs
Assay: cell-based or functional assay

killer cell immunoglobulin-like receptor 3DL2 (KIR3DL2) (from UniProt P43630 22-455)
MN death on co-culture with kir3dl2 shRNA treated ALS astrocytes, day 7: 50%
